In doi:10.1101/273615 (bioRxiv, 2018):
Numbering of substitutions follows the chain as printed. Numbers in names are those of the source. Each block holds one binder with its values, some of them ahead of it.

What was measured:
Experiment in all cases: ITC
RBPJ (53-474) A284V = RBPJ (53-474) A284V (Mus musculus, UniProt P31266 53-474, A284V)
[1] = target: Mus musculus core RBPJ, residues 53-474 (Mus musculus, UniProt P31266 53-474)
RBPJ (53-474) L388A = RBPJ (53-474) L388A (Mus musculus, UniProt P31266 53-474, L388A)
Sequence of RBPJ (53-474) L388A (P31266 53-474 L388A): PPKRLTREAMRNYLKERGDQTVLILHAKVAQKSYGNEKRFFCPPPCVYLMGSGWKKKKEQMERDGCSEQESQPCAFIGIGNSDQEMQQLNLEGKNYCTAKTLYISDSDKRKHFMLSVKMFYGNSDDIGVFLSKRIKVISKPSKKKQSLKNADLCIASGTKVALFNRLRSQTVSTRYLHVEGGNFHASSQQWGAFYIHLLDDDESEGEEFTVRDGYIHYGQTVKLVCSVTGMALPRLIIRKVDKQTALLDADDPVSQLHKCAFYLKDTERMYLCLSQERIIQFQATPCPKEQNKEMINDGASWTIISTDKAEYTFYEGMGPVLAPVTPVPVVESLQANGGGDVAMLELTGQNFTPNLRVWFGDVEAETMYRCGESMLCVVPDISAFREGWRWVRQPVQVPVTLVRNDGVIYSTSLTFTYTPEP

RBPJ (53-474) F261A = RBPJ (53-474) F261A (Mus musculus, UniProt P31266 53-474, F261A)
Sequence of RBPJ (53-474) F261A (P31266 53-474 F261A): as the sequence (P31266 53-474 L388A) above, with F209A, A336L counted along it

Sequence of Mus musculus core RBPJ, residues 53-474 (P31266 53-474): as the sequence (P31266 53-474 L388A) above, with A336L counted along it
Sequence of RBPJ (53-474) A284V (P31266 53-474 A284V): as the sequence (P31266 53-474 L388A) above, with A232V, A336L counted along it

B1: SMT3-SHARP, residues 2776-2833 (RBPJ-interacting region) (domain or fragment, UniProt Q96T58 2802-2859, looked up)
chain: SGAGLRVNTSEGVVLLSYSGQKTEGPQRISAKISQIPPASAMDIEFQQSVSKSQVKPD
fold reduction in binding against native RBPJ (RBPJ (53-474) A284V): ~50 fold | Kd [1]: ~5 nM | stoichiometry N [1]: 1 | fold reduction in binding against native RBPJ (RBPJ (53-474) L388A): ~70 fold | fold reduction in binding against native RBPJ (RBPJ (53-474) F261A): ~45 fold

B3: SMT3-SHARP (2776-2833) L2791A (domain or fragment, UniProt Q96T58 2802-2859, looked up)
chain: B1 chain with L16A
fold decrease in binding against native SHARP [1]: > 350 fold

B4: SMT3-SHARP (2776-2833) K2807A (domain or fragment, UniProt Q96T58 2802-2859, looked up)
chain: B1 chain with K32A
fold reduction in binding against native SHARP [1]: ~6 fold

Further lines, results first:

fold reduction in binding against native SHARP [1]: > 60 fold
B2: SMT3-SHARP (2776-2833) I2811A (domain or fragment, UniProt Q96T58 2802-2859, looked up)
chain: B1 chain with I36A

fold reduction in binding against native SHARP [1]: > 10 fold
B5: SMT3-SHARP (2776-2833) V2789A (domain or fragment, UniProt Q96T58 2802-2859, looked up)
chain: B1 chain with V14A

fold reduction in binding against native SHARP [1]: > 20 fold
B6: SMT3-SHARP (2776-2833) Y2793A (domain or fragment, UniProt Q96T58 2802-2859, looked up)
chain: B1 chain with Y18A
